Residue numbers refer to the chain shown, from its start.
Key:
Smc3^QQ R1008I Q67C = biological target: T1, Smc3^QQ R1008I Q67C (S. cerevisiae, UniProt P47037 1-1230, Q67C | K112Q | K113Q | R1008I); experiment: cross-linking; in vivo BMOE cross-link of cysteine pairs in yeast cells arrested in late G1 by non-degradable Sic1(9m); Scc1-PK immunoprecipitated, western blot, band intensities quantified; settings: partners not purified
T1 construct: Smc3, S. cerevisiae; also called smc3-QQ Q67C with R1008I; source: S. cerevisiae W303, late G1 arrested cells, whole-cell extract
T1 sequence (looked up): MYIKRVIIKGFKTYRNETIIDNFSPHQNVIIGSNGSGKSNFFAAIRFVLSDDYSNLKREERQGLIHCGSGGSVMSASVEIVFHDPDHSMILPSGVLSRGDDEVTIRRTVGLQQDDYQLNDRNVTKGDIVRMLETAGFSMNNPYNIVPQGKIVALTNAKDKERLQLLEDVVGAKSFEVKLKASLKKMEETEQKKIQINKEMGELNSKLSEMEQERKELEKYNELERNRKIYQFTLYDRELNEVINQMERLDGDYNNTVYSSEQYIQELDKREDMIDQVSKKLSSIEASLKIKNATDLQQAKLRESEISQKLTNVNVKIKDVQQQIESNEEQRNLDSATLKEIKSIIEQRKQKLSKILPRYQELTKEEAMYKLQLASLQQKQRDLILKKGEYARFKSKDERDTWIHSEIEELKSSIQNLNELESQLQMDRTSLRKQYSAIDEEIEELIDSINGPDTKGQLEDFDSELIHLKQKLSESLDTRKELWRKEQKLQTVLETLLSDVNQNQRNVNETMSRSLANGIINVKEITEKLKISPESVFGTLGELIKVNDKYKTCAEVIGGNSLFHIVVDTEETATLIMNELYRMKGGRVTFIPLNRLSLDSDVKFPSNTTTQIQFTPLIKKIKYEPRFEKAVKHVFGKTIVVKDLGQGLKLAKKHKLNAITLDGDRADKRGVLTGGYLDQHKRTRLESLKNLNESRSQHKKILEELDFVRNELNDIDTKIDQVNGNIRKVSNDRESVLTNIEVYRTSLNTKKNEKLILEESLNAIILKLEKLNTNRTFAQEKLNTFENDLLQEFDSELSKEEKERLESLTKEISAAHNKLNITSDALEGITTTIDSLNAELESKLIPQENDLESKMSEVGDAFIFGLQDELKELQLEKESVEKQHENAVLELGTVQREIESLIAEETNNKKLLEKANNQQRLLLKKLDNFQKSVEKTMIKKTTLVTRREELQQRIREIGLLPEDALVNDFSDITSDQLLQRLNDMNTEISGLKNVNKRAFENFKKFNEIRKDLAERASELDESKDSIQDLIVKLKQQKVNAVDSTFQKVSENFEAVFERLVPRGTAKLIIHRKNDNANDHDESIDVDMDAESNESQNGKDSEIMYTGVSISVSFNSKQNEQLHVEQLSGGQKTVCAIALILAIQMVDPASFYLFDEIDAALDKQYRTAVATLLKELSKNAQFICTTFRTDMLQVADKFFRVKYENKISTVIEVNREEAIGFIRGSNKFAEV

Smc3^QQ Q67C = biological target: T2, Smc3^QQ Q67C (S. cerevisiae, UniProt P47037 1-1230, Q67C | K112Q | K113Q); experiment: as above; settings: partners not purified
T2 construct: Smc3, S. cerevisiae; source: S. cerevisiae W303, late G1 arrested cells, whole-cell extract
T2 sequence (looked up): T1 sequence (looked up) with I1008R

- crosslink relative to wild-type Smc3 (Smc3^QQ R1008I Q67C): ~40%
- crosslink relative to wild-type Smc3 (Smc3^QQ Q67C): ~10%
B1: Scc2 T1175C (natural protein, S. cerevisiae, UniProt Q04002 1-1493, looked up)
chain: MSYPGKDKNIPGRIIEALEDLPLSYLVPKDGLAALVNAPMRVSLPFDKTIFTSADDGRDVNINVLGTANSTTSSIKNEAEKERLVFKRPSNFTSSANSVDYVPTNFLEGLSPLAQSVLSTHKGLNDSINIEKKSEIVSRPEAKHKLESVTSNAGNLSFNDNSSNKKTKTSTGVTMTQANLAEQYLNDLKNILDIVGFDQNSAEIGNIEYWLQLPNKKFVLTTNCLTKLQMTIKNITDNPQLSNSIEITWLLRLLDVMVCNIKFSKSSLKMGLDDSMLRYIALLSTIVLFNIFLLGKNDSNLHRESYIMEPVNFLSDLIESLKILTIEYGSLKIEFDTFQEALELLPKYIRNGPFLDDNVTAKLVYIFSDLLMNNDIEATTNIQFQSFWDNVKRISSDILVSLFGSFDQQRGFIIEELLSHIEKLPTKRIQKKLRKVGNQNIYITDFTFTLMSMLENINCYSFCNQMKDIAPENIDLLKNEYKKQEEFLFNIVEHINDTILERFFKNPSALRYVIDNFVQDLLLLISSPQWPVTEKILSSLLKRLLSVYSPSMQVSANIETICLQLIGNIGSTIFDIKCSTRDHEDNNLIKMINYPETLPHFFKSFEECIAYNETIKCRRSATRFLWNLRLGTILILEEYTKDAKEQIITVDNELKKILEQIKDGGLGPELENREADFSTIKLDYFSILHAFELLNLYDPYLKLILSLLAKDKIKLRSTAIKCLSMLASKDKVILSNPMVKETIHRRLNDSSASVKDAILDLVSINSSYFEFYQQINNNYNDDSIMVRKHVLRINEKMYDETNDIVTKVYVIARILMKIEDEEDNIIDMARLILLNRWILKVHEVLDQPEKLKEISSSVLLVMSRVAIMNEKCSQLFDLFLNFYLLNKEAHSKEAYDKITHVLTILTDFLVQKIVELNSDDTNEKNSIVDKQNFLNLLAKFADSTVSFLTKDHITALYPYMVSDEKSDFHYYILQVFRCTFEKLANFKQKFLYDLETTLLSRLPKMNVREIDEAMPLIWSVATHRHDTARVAKACSSCLSHLHPYINKANNEEAAIVVDGKLQRLIYLSTGFARFCFPKPSNDKIAFLQEGETLYEHITKCLLVLSKDKITHVIRRVAVKNLTKLCGNHPKLFNSRHVLHLLDKEFQSDQLDIKLVILESLYDLFLLEERKSVRNCGVNSTLSSNSILKKKLLKTNRVEFANDGVCSALATRFLDNILQLCLLRDLKNSLVAIRLLKLILKFGYTNPSHSIPTVIALFASTSQYIRHVAYELLEDLFEKYETLVFSSLSRGVTKAIHYSIHTDEKYYYKHDHFLSLLEKLCGTGKKNGPKFFKVLKRIMQSYLDDITDLTSTNSSVQKSIFVLCTNISNITFVSQYDLVSLLKTIDLTTDRLKEVIMDEIGDNVSSLSVSEEKLSGIILIQLSLQDLGTYLLHLYGLRDDVLLLDIVEESELKNKQLPAKKPDISKFSAQLENIEQYSSNGKLLTYFRKHVKDT
notes: Scc2, S. cerevisiae; source: S. cerevisiae W303, in vivo, whole-cell extract

Source: article PMC10516938, “Conformational dynamics of cohesin/Scc2 loading complex are regulated by Smc3 acetylation and ATP binding” (Nature Communications, 2023)
